Sequences and labels used below:
B1: cartilage oligomeric matrix protein with a C-terminal His-tag (COMP-His) (natural protein)
chain: not shown
notes: cartilage oligomeric matrix protein, mouse, cDNA NM_016685.2; secreted into the conditioned medium of Sf9 cells; also called purified COMP; pentameric COMP protein

Data set [1] deals with the molecule itself. The experiment in a line: SEC + native gel or EMSA; purified COMP; gel filtration chromatography and non-reduced native PAGE followed by western blotting; pentamer.
For data set [2], the target named is T1, YFP-tagged AT1 receptor ( (human AT1 or mouse AT1a …, UniProt P30556 1-359)).
T1 construct: also called AT1-YFP; Flag-tagged AT1-YFP; source: HEK293T, transfected, in cells
T1 sequence (looked up): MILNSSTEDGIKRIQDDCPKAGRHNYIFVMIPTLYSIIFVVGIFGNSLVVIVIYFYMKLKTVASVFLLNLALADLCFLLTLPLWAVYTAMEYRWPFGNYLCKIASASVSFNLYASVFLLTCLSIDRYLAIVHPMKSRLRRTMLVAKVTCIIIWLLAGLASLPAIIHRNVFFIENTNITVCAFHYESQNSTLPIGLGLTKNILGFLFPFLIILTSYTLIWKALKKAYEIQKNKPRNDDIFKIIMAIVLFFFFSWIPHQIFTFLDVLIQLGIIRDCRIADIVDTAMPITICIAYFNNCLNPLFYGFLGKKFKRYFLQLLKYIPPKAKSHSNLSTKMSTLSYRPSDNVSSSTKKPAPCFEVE
The experiment in a line: FRET or BRET; as a12, cells pre-incubated with purified COMP (100 nM) for 30 min before AngII. The following applies: partners not purified. A general note: BRET reads energy transfer from a luciferase to a nearby fluorophore.

Data set [3] deals with T1, YFP-tagged AT1 receptor. Kind of data set: FRET or BRET; HEK293T cells co-transfected with AT1-YFP and β-arrestin-1-RLuc or β-arrestin-2-RLuc; vehicle, then increasing AngII for 5 min; BRET ratio YFP/RLuc. The following applies: partners not purified.
Data set [4] deals with the molecule itself. Kind of data set: native gel or EMSA; COMP-RLuc; 6% native PAGE without SDS and β-mercaptoethanol is the paper's method for the pentameric form of COMP; shown in Supplementary Fig. S11a. On the technique in general: In EMSA bound probe runs differently from free probe, usually more slowly.
In data set [5] the target is B1. The experiment in a line: SPR; BiaCore 8 K; AT1 amine-coupled to a CM5 chip (~4500 RU); analyte in two-fold dilutions (COMP 0.43–110 nM), 120 s association, 200 s dissociation; 10 mM HEPES pH 7.4, 150 mM NaCl, 0.05% P20, 0.01% DDM, 0.002% CHS; 1:1 binding model. The settings on record: both partners purified. (In general: In SPR one partner is held on a chip, and binding of the other changes the refractive index at the surface.)

Data set [6] addresses T2, MBP-fusion protein of the COMP EGF domain (mouse, UniProt Q9R0G6 84-261).
T2 construct: cartilage oligomeric matrix protein, mouse, EGF repeat domain; Vector pMAL-p5x; also called MBP-COMP-EGF; source: E. coli BL21, purified
T2 sequence (looked up): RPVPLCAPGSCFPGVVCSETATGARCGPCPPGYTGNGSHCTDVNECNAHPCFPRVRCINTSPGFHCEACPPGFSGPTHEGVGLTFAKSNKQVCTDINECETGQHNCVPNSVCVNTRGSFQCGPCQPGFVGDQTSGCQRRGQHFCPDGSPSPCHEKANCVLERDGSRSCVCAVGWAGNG
Kind of data set: pull-down; MBP fusion proteins of COMP domains and GST-fused AT1a N-terminus, equimolar, 4 °C 2 h; amylose resin; western blot with anti-GST. The settings on record: both partners purified.

Here are results for five molecules from publication PMC8249609 (Cell Research, 2021).

B1: the stoichiometry N (in general, a count of units in the complex or per binding partner) in data set [1] came out at 5.

B2: β-arrestin-1 fused with Renilla luciferase (natural protein, UniProt P49407 1-418, looked up)
chain: MGDKGTRVFKKASPNGKLTVYLGKRDFVDHIDLVDPVDGVVLVDPEYLKERRVYVTLTCAFRYGREDLDVLGLTFRKDLFVANVQSFPPAPEDKKPLTRLQERLIKKLGEHAYPFTFEIPPNLPCSVTLQPGPEDTGKACGVDYEVKAFCAENLEEKIHKRNSVRLVIRKVQYAPERPGPQPTAETTRQFLMSDKPLHLEASLDKEIYYHGEPISVNVHVTNNTNKTVKKIKISVRQYADICLFNTAQYKCPVAMEEADDTVAPSSTFCKVYTLTPFLANNREKRGLALDGKLKHEDTNLASSTLLREGANREILGIIVSYKVKVKLVVSRGGLLGDLASSDVAVELPFTLMHPKPKEEPPHREVPENETPVDTNLIELDTNDDDIVFEDFARQRLKGMKDDKEEEEDGTGSPQLNNR
notes: β-arrestin-1; also called β-arrestin-1-RLuc; source: HEK293T, transfected, in cells
Consider B2, for which, in the data set with YFP-tagged AT1 receptor [2], the “EC50 of AngII for the recruitment (BRET), with 100 nM COMP” value stood at 2.16 nM. Moreover, the “EC50 of AngII for the recruitment (BRET), vehicle” value with YFP-tagged AT1 receptor [3] was 0.89 nM.

B3: mouse COMP fused with the modified Renilla luciferase at the C-terminus (natural protein)
chain: not shown
notes: cartilage oligomeric matrix protein, mouse; also called COMP-RLuc; source: HEK293T, transfected; not shown: RLuc (modified Renilla luciferase), C-terminal, kept
In the case of B3, the “stoichiometry N” value in data set [4] stood at 5.

B4: AT1 receptor, residues 1-318, with N-terminal Flag-tag and BRIL (Flag-BRIL-AT1) (receptor, UniProt P30556 1-318, looked up)
chain: MILNSSTEDGIKRIQDDCPKAGRHNYIFVMIPTLYSIIFVVGIFGNSLVVIVIYFYMKLKTVASVFLLNLALADLCFLLTLPLWAVYTAMEYRWPFGNYLCKIASASVSFNLYASVFLLTCLSIDRYLAIVHPMKSRLRRTMLVAKVTCIIIWLLAGLASLPAIIHRNVFFIENTNITVCAFHYESQNSTLPIGLGLTKNILGFLFPFLIILTSYTLIWKALKKAYEIQKNKPRNDDIFKIIMAIVLFFFFSWIPHQIFTFLDVLIQLGIIRDCRIADIVDTAMPITICIAYFNNCLNPLFYGFLGKKFKRYFLQLLK
notes: Order on the chain as printed: Flag-tag, BRIL, AT1; Detergent-solubilised (DDM/CHS in the running buffer); also called purified AT1 receptor; AngII type 1 receptor
Consider B4, for which binding in data set [5] was characterised by a dissociation constant (Kd) of 1.42 ± 0.014 nM.

B5: GST-fused N-terminus of mouse AT1a receptor (aa 1-27) (domain or fragment, UniProt P29754 1-27, looked up)
chain: MALNSSTEDGIKRIQDDCPRAGRHSYI
notes: also called GST-fused N-terminus of AT1a; source: purified (vector pGEX-6P-1; host not clearly stated)
As to B5, the binding result in data set [6] is “binds”.
